In article PMC12637224, “The nonconserved integrin cytoplasmic region determines integrin subtype–specific characteristics by modulating talin1 binding kinetics” (The Journal of Biological Chemistry, 2025):

How the values were obtained:
[1] = target: HaloTag-fused talin1 (HT-talin1) expressed in BAF/LFA1 cells (UniProt P26039); assay: single-molecule binding analysis (HT-Tln1 imaging in BAF/LFA1 cells); conditions: ICAM1+PMA, read off a plot
[2] = target: T1, GST-fused talin1 FERM F2–F3 domain; assay: BLI
T1 chain: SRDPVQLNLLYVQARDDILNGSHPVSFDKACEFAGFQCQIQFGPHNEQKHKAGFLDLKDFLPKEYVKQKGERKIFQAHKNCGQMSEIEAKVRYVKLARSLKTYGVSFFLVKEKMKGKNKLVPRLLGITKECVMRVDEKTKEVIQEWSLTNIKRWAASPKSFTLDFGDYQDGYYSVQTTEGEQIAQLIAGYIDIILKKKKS

[3] = target: T1, GST-fused talin1 FERM F2–F3 domain; assay: BLI
[4] = target: T2, GST-fused talin1 FERM F2–F3 domain (GST carrier omitted. F2-F3 limits are not given; 206-405 is the usual talin1 F2-F3 construct. Mouse is assumed because the other talin1 constructs in the paper are mouse.); assay: BLI; Octet RH96; GST-talin1 FERM F2–F3 (10 μg/ml) immobilized on Octet GST Biosensors; synthetic integrin CT peptides at 4.9, 14.8, 44.4 and 133 μM as analytes in 25 mM Tris–HCl, 150 mM NaCl, 0.05% Triton X-100, pH 7.5; binding to GST alone subtracted; conditions: both partners purified
T2 chain: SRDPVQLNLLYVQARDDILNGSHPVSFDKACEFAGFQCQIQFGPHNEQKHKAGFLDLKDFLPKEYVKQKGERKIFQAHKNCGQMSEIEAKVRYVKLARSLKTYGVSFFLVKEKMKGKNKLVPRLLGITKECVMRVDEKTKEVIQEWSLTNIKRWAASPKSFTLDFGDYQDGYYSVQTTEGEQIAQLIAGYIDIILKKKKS

[5] = target: T3, HaloTag-fused talin1 (HT-talin1), endogenous knock-in in mouse primary T cells (mouse (endogenous knock-in in mouse T …, UniProt P26039 1-2541, HaloTag labelled with HT SaraFluor 650T Ligand)); assay: Th2 cells, on PECAM1
[6] = target: T3, HaloTag-fused talin1 (HT-talin1), …; assay: naive T cells, on PECAM1
[7] = target: T3, HaloTag-fused talin1 (HT-talin1), …; assay: Th2 cells, on ICAM1
[8] = target: T3, HaloTag-fused talin1 (HT-talin1), …; assay: naive T cells, on ICAM1
[9] = target: T3, HaloTag-fused talin1 (HT-talin1), …; assay: naive T cells, on ICAM1; remark: listed apart in the source
[10] = target: T3, HaloTag-fused talin1 (HT-talin1), …; assay: activated T cells, on ICAM1
[11] = β2β7: n = 1453, β2β7-NND: n = 1726, parent: est. 19

HaloTag-fused talin1 (HT-talin1) expressed in BAF/LFA1 cells, sequence (P26039 whole entry, looked up, the tested form may be a part): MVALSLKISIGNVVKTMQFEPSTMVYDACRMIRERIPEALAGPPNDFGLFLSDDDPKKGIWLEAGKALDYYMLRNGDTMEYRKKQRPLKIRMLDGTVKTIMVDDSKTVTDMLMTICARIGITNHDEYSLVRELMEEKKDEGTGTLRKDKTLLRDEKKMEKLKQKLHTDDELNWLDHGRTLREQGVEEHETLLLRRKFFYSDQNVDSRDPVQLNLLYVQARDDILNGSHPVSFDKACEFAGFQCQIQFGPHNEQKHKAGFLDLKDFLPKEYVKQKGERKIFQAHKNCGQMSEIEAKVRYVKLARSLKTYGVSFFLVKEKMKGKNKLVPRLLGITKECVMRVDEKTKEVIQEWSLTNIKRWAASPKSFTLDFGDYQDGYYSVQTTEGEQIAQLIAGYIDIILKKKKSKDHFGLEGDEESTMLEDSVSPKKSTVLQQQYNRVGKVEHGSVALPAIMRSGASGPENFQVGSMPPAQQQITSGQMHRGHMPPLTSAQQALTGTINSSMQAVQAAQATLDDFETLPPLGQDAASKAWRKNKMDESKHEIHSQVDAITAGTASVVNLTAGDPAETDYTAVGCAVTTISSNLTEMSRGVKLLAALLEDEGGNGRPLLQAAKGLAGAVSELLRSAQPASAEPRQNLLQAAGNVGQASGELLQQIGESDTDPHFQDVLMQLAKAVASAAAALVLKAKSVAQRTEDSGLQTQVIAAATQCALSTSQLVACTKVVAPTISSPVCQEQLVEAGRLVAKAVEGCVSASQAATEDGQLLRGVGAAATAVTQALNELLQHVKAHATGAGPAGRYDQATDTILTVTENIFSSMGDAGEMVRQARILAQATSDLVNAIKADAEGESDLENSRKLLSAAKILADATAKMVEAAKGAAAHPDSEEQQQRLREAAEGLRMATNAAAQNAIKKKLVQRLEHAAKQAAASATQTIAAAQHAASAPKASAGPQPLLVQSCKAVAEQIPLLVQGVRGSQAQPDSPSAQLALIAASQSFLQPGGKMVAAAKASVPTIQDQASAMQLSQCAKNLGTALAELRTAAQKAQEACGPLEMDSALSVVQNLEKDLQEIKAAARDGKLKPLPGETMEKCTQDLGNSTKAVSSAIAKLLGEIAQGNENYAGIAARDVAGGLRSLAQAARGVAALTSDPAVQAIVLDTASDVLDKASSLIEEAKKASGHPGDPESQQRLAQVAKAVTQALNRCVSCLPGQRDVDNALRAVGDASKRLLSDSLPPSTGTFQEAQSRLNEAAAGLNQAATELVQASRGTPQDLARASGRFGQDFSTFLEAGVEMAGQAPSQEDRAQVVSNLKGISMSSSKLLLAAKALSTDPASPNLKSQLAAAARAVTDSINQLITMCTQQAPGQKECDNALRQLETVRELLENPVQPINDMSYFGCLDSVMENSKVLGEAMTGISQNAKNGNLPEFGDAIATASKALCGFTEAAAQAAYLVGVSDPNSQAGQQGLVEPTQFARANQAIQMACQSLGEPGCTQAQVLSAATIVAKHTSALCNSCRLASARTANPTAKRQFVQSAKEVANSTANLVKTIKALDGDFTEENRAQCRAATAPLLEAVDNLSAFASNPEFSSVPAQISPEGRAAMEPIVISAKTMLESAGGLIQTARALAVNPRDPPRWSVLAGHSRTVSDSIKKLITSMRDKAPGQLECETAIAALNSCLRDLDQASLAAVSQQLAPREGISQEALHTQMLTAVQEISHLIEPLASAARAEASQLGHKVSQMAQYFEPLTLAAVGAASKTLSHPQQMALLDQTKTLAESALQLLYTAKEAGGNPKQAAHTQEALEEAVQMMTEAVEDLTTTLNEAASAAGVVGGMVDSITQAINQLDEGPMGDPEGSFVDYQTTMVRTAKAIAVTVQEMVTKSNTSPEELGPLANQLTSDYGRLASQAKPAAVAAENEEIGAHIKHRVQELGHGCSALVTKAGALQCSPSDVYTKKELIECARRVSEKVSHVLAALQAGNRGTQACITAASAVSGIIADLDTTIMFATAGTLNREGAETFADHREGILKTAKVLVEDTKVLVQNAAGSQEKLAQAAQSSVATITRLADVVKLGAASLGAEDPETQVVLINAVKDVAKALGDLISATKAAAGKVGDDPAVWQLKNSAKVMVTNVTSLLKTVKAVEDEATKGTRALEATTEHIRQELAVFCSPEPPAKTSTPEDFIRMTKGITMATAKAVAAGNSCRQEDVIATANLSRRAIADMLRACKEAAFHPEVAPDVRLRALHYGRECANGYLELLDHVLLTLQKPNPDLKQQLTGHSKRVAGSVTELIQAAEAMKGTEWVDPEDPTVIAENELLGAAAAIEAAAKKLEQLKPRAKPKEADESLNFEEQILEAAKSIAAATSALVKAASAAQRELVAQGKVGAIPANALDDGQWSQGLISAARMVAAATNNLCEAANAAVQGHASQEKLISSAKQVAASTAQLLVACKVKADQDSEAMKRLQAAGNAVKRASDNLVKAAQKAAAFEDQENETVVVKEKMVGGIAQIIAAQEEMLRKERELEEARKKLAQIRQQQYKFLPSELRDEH

chimeric LFA1 αLα4/β2β7 (cytoplasmic tails of αL and β2 replaced with those of α4 and β7) (from UniProt P13612;P26010) KQDS to NND (β7 WN linker)
other: binding frequency (events/area) ([1]; β2β7: n = 22, β2β7-NND: n = 14, parent: est. 1.2): 4.7 µm-2 | other: frequency of binding time 1 to 10 s (yellow segment) [1, 11]: 23% | other: frequency of binding time, top of stacked bar (1 to 10 s plus >10 s) [1, 11]: 24%

B1: synthetic integrin β3 cytoplasmic tail peptide (peptide)
peptide: KLLITIHDRKEFAKFEEERARAKWDTANNPLYKEATSTFTNITYRGT
modifications: GST carrier omitted. F2-F3 limits are not given; 206-405 is the usual talin1 F2-F3 construct. Mouse is assumed because the other talin1 constructs in the paper are mouse.
koff [2]: 0.00458 s⁻¹ | Kd [3]: 133 µM

B2: synthetic integrin β7 cytoplasmic tail peptide (peptide)
peptide: RLSVEIYDRREYSRFEKEQQQLNWKQDSNPLYKSAITTTINPRFQEADSPTL
modifications: GST carrier omitted. F2-F3 limits are not given; 206-405 is the usual talin1 F2-F3 construct. Mouse is assumed because the other talin1 constructs in the paper are mouse.
koff [2]: 0.00597 s⁻¹ | Kd [3]: 124 µM

B3: synthetic integrin β2 cytoplasmic tail peptide (peptide)
peptide: KALIHLSDLREYRRFEKEKLKSQWNNDNPLFKSATTTVMNPKFAES
modifications: GST carrier omitted. F2-F3 limits are not given; 206-405 is the usual talin1 F2-F3 construct. Mouse is assumed because the other talin1 constructs in the paper are mouse.
koff [2]: 0.00398 s⁻¹ | Kd [3]: 43.5 µM

B4: synthetic integrin β2 cytoplasmic tail peptide (peptide, UniProt P05107 724-769, looked up)
peptide: KALIHLSDLREYRRFEKEKLKSQWNNDNPLFKSATTTVMNPKFAES
notes: integrin β2 cytoplasmic tail peptide; also called β2 integrin; β2-CT; source: synthetic peptide (GenScript)
fold higher affinity than m25 (β7 peptide) [4]: 3 fold | fold higher affinity than m26 (β3 peptide) [4]: 3 fold | fold higher affinity than m27 (β1 peptide) [4]: 2 fold

B5: αV/β3 integrin, endogenous on mouse primary T cells (receptor)
chain 1: FNLDVESPAEYAGPEGSYFGFAVDFFEPSTSSRMFLLVGAPKANTTQPGIVEGGQVLKCECSSSRRCQPIEFDSTGNRDYAKDDPLEFKSHQWFGASVRSKQDKILACAPLYHWRTEMKQEREPVGTCFLQDGTKTVEYAPCRSKNIDADGQGFCQGGFSIDFTKADRVLLGGPGSFYWQGQLISDQVAEIISKYDPNVYSIKYNNQLATRTAQAIFDDSYLGYSVAVGDFNGDGIEDFVSGVPRAARTLGMVYIYDGKNMSSLHNFTGEQMAAYFGFSVAATDINGDDYADVFIGAPLFMDRGSDGKLQEVGQVSVSLQRAVGDFQTTKLNGFEVFARFGSAIAPLGDLDQDGFNDIAIAAPYGGEDKKGLVYIFNGRSTGLNSVPSQILEGQWAAQSMPPSFGYSMKGATDVDRNGYPDLVVGAFGVDRAVLYRARPVVTVNAGLEVYPSILNQDNKICPLPGTALKVSCFNVRFCLKADGKGTLPRKLHFQVELLLDKLKQKGAIRRALFLHNRSPVHSKTMTVFRGGQMQCEELVAYLRDESEFRDKLTPITIFMEYRLDQRTAADATGLQPILNQFTPANVSRQAHILLDCGEDNVCKPKLEVSVNSDQKKIYIGDDNPLTLTVKAQNQGEGAYEAELIVSIPPQADFIGVVRNNEALARLSCAFKTENQTRQVVCDLGNPMKAGTQLLAGLRFSVHQQSEMDTSVKFDLKIQSSNSFDNVSPVVSYKVDLAVLAAVEIRGVSSPDHIFLPIPNWEYKENPETEEDVGPIVQHIYELRNNGPSSFSKAILNLQWPYKYNNNTLLYILHYDIDGPMNCTADTEINPLRIKTPEKNDTAAAGQGERNHLITKRDLTLREGDVHTLGCGIAKCLQITCQVGRLDRGKSAILYVKSLLWTETFMNKENQNHSYSLKSSASFNIIEFPYKNLPIEDLFNSTLVTTNITWGIQPAPMPVPVWVIILAVLAGLLLLAVLVFVMYRMGFFKRVRPPQEEQEREQLQPHENGEGNSET
chain 2: ESNICTTRGVNSCQQCLAVSPVCAWCSDETLSQGSPRCNLKENLLKDNCAPESIEFPVSEAQILEARPLSSKGSGSSAQITQVSPQRIALRLRPDDSKIFSLQVRQVEDYPVDIYYLMDLSFSMKDDLSSIQTLGTKLASQMRKLTSNLRIGFGAFVDKPVSPYMYISPPQAIKNPCYNMKNACLPMFGYKHVLTLTDQVSRFNEEVKKQSVSRNRDAPEGGFDAIMQATVCDEKIGWRNDASHLLVFTTDAKTHIALDGRLAGIVLPNDGHCHIGTDNHYSASTTMDYPSLGLMTEKLSQKNINLIFAVTENVVSLYQNYSELIPGTTVGVLSDDSSNVLQLIVDAYGKIRSKVELEVRDLPEELSLSFNATCLNNEVIPGLKSCVGLKIGDTVSFSIEAKVRGCPQEKEQSFTIKPVGFKDSLTVQVTFDCDCACQAFAQPSSPRCNNGNGTFECGVCRCDQGWLGSMCECSEEDYRPSQQEECSPKEGQPICSQRGECLCGQCVCHSSDFGKITGKYCECDDFSCVRYKGEMCSGHGQCNCGDCVCDSDWTGYYCNCTTRTDTCMSTNGLLCSGRGNCECGSCVCVQPGSYGDTCEKCPTCPDACSFKKECVECKKFNRGTLHEENTCSRYCRDDIEQVKELTDTGKNAVNCTYKNEDDCVVRFQYYEDTSGRAVLYVVEEPECPKGPDILVVLLSVMGAILLIGLATLLIWKLLITIHDRKEFAKFEEERARAKWDTANNPLYKEATSTFTNITYRGT
koff [5]: 0.264 s⁻¹ | koff [6]: 0.326 s⁻¹

B6: synthetic integrin β1 cytoplasmic tail peptide (peptide)
peptide: KLLMIIHDRREFAKFEKEKMNAKWDTGENPIYKSAVTTVVNPKYEGK
modifications: GST carrier omitted. F2-F3 limits are not given; 206-405 is the usual talin1 F2-F3 construct. Mouse is assumed because the other talin1 constructs in the paper are mouse.
koff [2]: 0.00509 s⁻¹ | Kd [3]: 90.2 µM

B7: LFA1 (αL/β2 integrin), endogenous on mouse primary T cells (receptor)
chain 1: YNLDTRPTQSFLAQAGRHFGYQVLQIEDGVVVGAPGEGDNTGGLYHCRTSSEFCQPVSLHGSNHTSKYLGMTLATDAAKGSLLACDPGLSRTCDQNTYLSGLCYLFPQSLEGPMLQNRPAYQECMKGKVDLVFLFDGSQSLDRKDFEKILEFMKDVMRKLSNTSYQFAAVQFSTDCRTEFTFLDYVKQNKNPDVLLGSVQPMFLLTNTFRAINYVVAHVFKEESGARPDATKVLVIITDGEASDKGNISAAHDITRYIIGIGKHFVSVQKQKTLHIFASEPVEEFVKILDTFEKLKDLFTDLQRRIYAIEGTNRQDLTSFNMELSSSGISADLSKGHAVVGAVGAKDWAGGFLDLREDLQGATFVGQEPLTSDVRGGYLGYTVAWMTSRSSRPLLAAGAPRYQHVGQVLLFQAPEAGGRWNQTQKIEGTQIGSYFGGELCSVDLDQDGEAELLLIGAPLFFGEQRGGRVFTYQRRQSLFEMVSELQGDPGYPLGRFGAAITALTDINGDRLTDVAVGAPLEEQGAVYIFNGKPGGLSPQPSQRIQGAQVFPGIRWFGRSIHGVKDLGGDRLADVVVGAEGRVVVLSSRPVVDVVTELSFSPEEIPVHEVECSYSAREEQKHGVKLKACFRIKPLTPQFQGRLLANLSYTLQLDGHRMRSRGLFPDGSHELSGNTSITPDKSCLDFHFHFPICIQDLISPINVSLNFSLLEEEGTPRDQKVGRAMQPILRPSIHTVTKEIPFEKNCGEDKKCEANLTLSSPARSGPLRLMSSASLAVEWTLSNSGEDAYWVRLDLDFPRGLSFRKVEMLQPHSRMPVSCEELTEGSSLLTKTLKCNVSSPIFKAGQEVSLQVMFNTLLNSSWEDFVELNGTVHCENENSSLQEDNSAATHIPVLYPVNILTKEQENSTLYISFTPKGPKTQQVQHVYQVRIQPSAYDHNMPTLEALVGVPWPHSEDPITYTWSVQTDPLVTCHSEDLKRPSSEAEQPCLPGVQFRCPIVFRREILIQVTGTVELSKEIKASSTLSLCSSLSVSFNSSKHFHLYGSKASEAQVLVKVDLIHEKEMLHVYVLSGIGGLVLLFLIFLALYKVGFFKRNLKEKMEADGGVPNGSPPEDTDPLAVPGEETKDMGCLEPLRESDKD
chain 2: QECTKYKVSSCRDCIQSGPGCSWCQKLNFTGPGEPDSLRCDTRAQLLLKGCPADDIMDPRSIANPEFDQRGQRKQLSPQKVTLYLRPGQAAAFNVTFRRAKGYPIDLYYLMDLSYSMLDDLNNVKKLGGDLLQALNEITESGRIGFGSFVDKTVLPFVNTHPEKLRNPCPNKEKACQPPFAFRHVLKLTDNSNQFQTEVGKQLISGNLDAPEGGLDAIMQVAACPEEIGWRNVTRLLVFATDDGFHFAGDGKLGAILTPNDGRCHLEDNMYKRSNEFDYPSVGQLAHKLSESNIQPIFAVTKKMVKTYEKLTEIIPKSAVGELSDDSSNVVQLIKNAYYKLSSRVFLDHSTLPDTLKVTYDSFCSNGASSIGKSRGDCDGVQINNPVTFQVKVMASECIQEQSFVIRALGFTDTVTVQVRPQCECQCRDQSREQSLCGGKGVMECGICRCESGYIGKNCECQTQGRSSQELERNCRKDNSSIVCSGLGDCICGQCVCHTSDVPNKEIFGQYCECDNVNCERYNSQVCGGSDRGSCNCGKCSCKPGYEGSACQCQRSTTGCLNARLVECSGRGHCQCNRCICDEGYQPPMCEDCPSCGSHCRDNHTSCAECLKFDKGPFEKNCSVQCAGMTLQTIPLKKKPCKERDSEGCWITYTLQQKDGRNIYNIHVEDSLECVKGPNVAAIVGGTVVGVVLIGVLLLVIWKALTHLTDLREYRRFEKEKLKSQWNNDNPLFKSATTTVMNPKFAES
koff [7]: 0.17 s⁻¹ | koff [8]: 0.288 s⁻¹ | koff [9]: 0.316 s⁻¹ | koff [10]: 0.279 s⁻¹
